Biological target: the molecule itself
Assay: SEC

B1: recombinant human apomanganese superoxide dismutase (enzyme, UniProt P04179 25-222, looked up)
chain: KHSLPDLPYDYGALEPHINAQIMQLHHSKHHAAYVNNLNVTEEKYQEALAKGDVTAQIALQPALKFNGGGHINHSIFWTNLSPNGGGEPKGELLEAIKRDFGSFDKFKEKLTAASVGVQGSGWGWLGFNKERGHLQIAACPNQDPLQGTTGLIPLLGIDVWEHAYYLQYKNVRPDYLKAIWNVINWENVTERYMACKK
For B1, which “stoichiometry N” value is on record?
Its value is 4.
